According to patent US20180312591A1 (ONCOSYNERGY, published 2018):

B1: composite human antibody variant H1 (antibody, V domains shown)
VH: EVQLVQSGAEVKKPGSSVKVSCKASGYTFTGYILSWVRQAPGQGLEWIGWVDPEYGSTDSAEKFKKRVTITADISTSTAYMELSSLRSEDTATYFCTRYYDGYYRRWFAYWGQGTLVTVSS
VL: DIQMTQSPSSLSASVGDRVTITCLASEGISNNLAWYQQKPGKAPKLLIYGAHSLHDGVPDRFSGSGSGTDYTLKISRVEAEDVGVYYCQQGYKYPITFGGGTKVEIK
notes: also called VH5VK3
B2: composite human antibody variant H19 (antibody, V domains shown)
VH: EVQLVQSGPEVKKPGSSVKISCKASGYTFTGYILSWVKQAPGQGLEWIGWVDPEYGSTDSAEKFKKRATLTADISTNTAYIQLSSLRSEDTATYFCTRYYDGYYRRWFAYWGQGTLVTVSS
VL: DIQMTQSPSSLSASVGDRVTITCLASEGISNNLAWHQQKPGKAPQLLIYGAHSLHDGVPDRFSGSGSGTDYTLKISGMQPEDEGVYYCQQGYKYPITFGGGTKVEIK
notes: also called VH1VK1
B3: composite human antibody variant H3 (antibody, V domains shown)
VH: EVQLVQSGAEVKKPGSSVKVSCKASGYTFTGYILSWVRQAPGQGLEWIGWVDPEYGSTDSAEKFKKRATITADISTSTAYMELSSLRSEDTATYFCTRYYDGYYRRWFAYWGQGTLVTVSS
VL: DIQMTQSPSSLSASVGDRVTITCLASEGISNNLAWYQQKPGKAPKLLIYGAHSLHDGVPDRFSGSGSGTDFTLKISRVEAEDVGVYYCQQGYKYPITFGGGTKVEIK
notes: also called VH4VK4
B4: composite human antibody variant H15 (antibody, V domains shown)
VH: EVQLVQSGAEVKKPGSSVKISCKASGYTFTGYILSWVRQAPGQGLEWIGWVDPEYGSTDSAEKFKKRATLTADISTNTAYIELSSLRSEDTATYFCTRYYDGYYRRWFAYWGQGTLVTVSS
VL: DIQMTQSPSSLSASVGDRVTITCLASEGISNNLAWHQQKPGKAPKLLIYGAHSLHDGVPDRFSGSGSGTDYTLKISRVEAEDVGVYYCQQGYKYPITFGGGTKVEIK
notes: also called VH2VK2
B5: composite human antibody variant H8 (antibody, V domains shown)
VH: EVQLVQSGAEVKKPGSSVKVSCKASGYTFTGYILSWVRQAPGQGLEWIGWVDPEYGSTDSAEKFKKRATITADISTSTAYMELSSLRSEDTATYFCTRYYDGYYRRWFAYWGQGTLVTVSS
VL: DIQMTQSPSSLSASVGDRVTITCLASEGISNNLAWHQQKPGKAPKLLIYGAHSLHDGVPDRFSGSGSGTDYTLKISRVEAEDVGVYYCQQGYKYPITFGGGTKVEIK
notes: also called VH4VK2
B6: composite human antibody variant H11 (antibody, V domains shown)
VH: EVQLVQSGAEVKKPGSSVKISCKASGYTFTGYILSWVRQAPGQGLEWIGWVDPEYGSTDSAEKFKKRATLTADISTSTAYIELSSLRSEDTATYFCTRYYDGYYRRWFAYWGQGTLVTVSS
VL: DIQMTQSPSSLSASVGDRVTITCLASEGISNNLAWYQQKPGKAPKLLIYGAHSLHDGVPDRFSGSGSGTDYTLKISRVEAEDVGVYYCQQGYKYPITFGGGTKVEIK
notes: also called VH3VK3
B7: composite human antibody variant H13 (antibody, V domains shown)
VH: EVQLVQSGAEVKKPGSSVKISCKASGYTFTGYILSWVRQAPGQGLEWIGWVDPEYGSTDSAEKFKKRATLTADISTNTAYIELSSLRSEDTATYFCTRYYDGYYRRWFAYWGQGTLVTVSS
VL: DIQMTQSPSSLSASVGDRVTITCLASEGISNNLAWYQQKPGKAPKLLIYGAHSLHDGVPDRFSGSGSGTDFTLKISRVEAEDVGVYYCQQGYKYPITFGGGTKVEIK
notes: also called VH2VK4
B8: composite human antibody variant H2 (antibody, V domains shown)
VH: EVQLVQSGAEVKKPGSSVKISCKASGYTFTGYILSWVRQAPGQGLEWIGWVDPEYGSTDSAEKFKKRATLTADISTSTAYIELSSLRSEDTATYFCTRYYDGYYRRWFAYWGQGTLVTVSS
VL: DIQMTQSPSSLSASVGDRVTITCLASEGISNNLAWHQQKPGKAPQLLIYGAHSLHDGVPDRFSGSGSGTDYTLKISGMQPEDEGVYYCQQGYKYPITFGGGTKVEIK
notes: also called VH3VK1
B9: composite human antibody variant H5 (antibody, V domains shown)
VH: EVQLVQSGAEVKKPGSSVKVSCKASGYTFTGYILSWVRQAPGQGLEWIGWVDPEYGSTDSAEKFKKRVTITADISTSTAYMELSSLRSEDTATYFCTRYYDGYYRRWFAYWGQGTLVTVSS
VL: DIQMTQSPSSLSASVGDRVTITCLASEGISNNLAWHQQKPGKAPKLLIYGAHSLHDGVPDRFSGSGSGTDYTLKISRVEAEDVGVYYCQQGYKYPITFGGGTKVEIK
notes: also called VH5VK2
B10: composite human antibody variant H10 (antibody, V domains shown)
VH: EVQLVQSGAEVKKPGSSVKISCKASGYTFTGYILSWVRQAPGQGLEWIGWVDPEYGSTDSAEKFKKRATLTADISTSTAYIELSSLRSEDTATYFCTRYYDGYYRRWFAYWGQGTLVTVSS
VL: DIQMTQSPSSLSASVGDRVTITCLASEGISNNLAWYQQKPGKAPKLLIYGAHSLHDGVPDRFSGSGSGTDFTLKISRVEAEDVGVYYCQQGYKYPITFGGGTKVEIK
notes: also called VH3VK4
B11: composite human antibody variant H6 (antibody, V domains shown)
VH: EVQLVQSGAEVKKPGSSVKVSCKASGYTFTGYILSWVRQAPGQGLEWIGWVDPEYGSTDSAEKFKKRVTITADISTSTAYMELSSLRSEDTATYFCTRYYDGYYRRWFAYWGQGTLVTVSS
VL: DIQMTQSPSSLSASVGDRVTITCLASEGISNNLAWHQQKPGKAPQLLIYGAHSLHDGVPDRFSGSGSGTDYTLKISGMQPEDEGVYYCQQGYKYPITFGGGTKVEIK
notes: also called VH5VK1
B12: composite human antibody variant H4 (antibody, V domains shown)
VH: EVQLVQSGAEVKKPGSSVKVSCKASGYTFTGYILSWVRQAPGQGLEWIGWVDPEYGSTDSAEKFKKRVTITADISTSTAYMELSSLRSEDTATYFCTRYYDGYYRRWFAYWGQGTLVTVSS
VL: DIQMTQSPSSLSASVGDRVTITCLASEGISNNLAWYQQKPGKAPKLLIYGAHSLHDGVPDRFSGSGSGTDFTLKISRVEAEDVGVYYCQQGYKYPITFGGGTKVEIK
notes: also called VH5VK4

target: T1, human integrin β1 (human, UniProt P05556 21-798); test: competition FACS on Jurkat cells; competitor murine OS2966 (0.1875 µg/ml)
T1 construct: whole, on cells; the antibodies are described as anti-human integrin β1; also called CD29; ITGB1
Description: Binding of composite human antibody variants (from Table 2) was assessed in a competition FACS assay with the OS2966 murine chimeric antibody (murine OS2966 Fab sliced to human Fc). In brief, a dilution series (three-fold) of chimeric or humanized antibodies starting from 25.0 μg/ml was premixed with a constant concentration of murine OS2966 (0.1875 μg/ml) in FACS buffer (1% BSA in 1×PBS pH 7.4) before mixing with 3×10⁵ Jurkat cells. […] After incubating on ice for 45 min, cells were washed, resuspended in 300 μl FACS buffer and analyzed on a Beckton Dickinson FACScalibur™. The geometric mean fluorescence intensity was plotted against antibody concentration (FIGS. 20-24).

First: B1
Second: B2
The “relative IC50 (IC50 of test antibody / IC50 of chimeric antibody)” value of the first is lower: 0.88 ratio to chimeric antibody for the first, 1.13 ratio to chimeric antibody for the second.

Compared with B3, B4 is lower in “relative IC50 (IC50 of test antibody / IC50 of chimeric antibody)” value: 2.7 ratio to chimeric antibody for the first, 1.32 ratio to chimeric antibody for the second.

Compared with B5, B6 is higher in “relative IC50 (IC50 of test antibody / IC50 of chimeric antibody)” value: 1.18 ratio to chimeric antibody for the first, 1.58 ratio to chimeric antibody for the second.

First: B7
Second: B8
The “relative IC50 (IC50 of test antibody / IC50 of chimeric antibody)” value of the first is higher: 2 ratio to chimeric antibody for the first, 0.97 ratio to chimeric antibody for the second.

First: B9
Second: B10
The “relative IC50 (IC50 of test antibody / IC50 of chimeric antibody)” value of the first is lower: 0.85 ratio to chimeric antibody for the first, 2.76 ratio to chimeric antibody for the second.

First: B11
Second: B12
The “relative IC50 (IC50 of test antibody / IC50 of chimeric antibody)” value of the first is lower: 1.24 ratio to chimeric antibody for the first, 3.26 ratio to chimeric antibody for the second.
